Key:
[1] = target: ARP-GFP fusion protein (human ARP, Leu form from pBSSKII ARP.4, fused to EGFP of pEGFP-N2) (human); assay: anti-GFP plate capture, detection with anti-FLAG M2 and anti-mouse IgG-AP; unconcentrated medium of cotransfection
[2] = target: ARP-GFP fusion protein (human ARP, Leu form from pBSSKII ARP.4, fused to EGFP of pEGFP-N2) (human); assay: anti-GFP plate capture, detection with anti-FLAG M2 and anti-mouse IgG-AP; concentrated medium of cotransfection

Sequence of FLAG-BRP fusion protein (N-terminal FLAG tag on predicted mature human BRP, secreted through the mouse preprotrypsin signal) (Q86YW7 other isoform, or with tags, fused parts or gaps limits assumed): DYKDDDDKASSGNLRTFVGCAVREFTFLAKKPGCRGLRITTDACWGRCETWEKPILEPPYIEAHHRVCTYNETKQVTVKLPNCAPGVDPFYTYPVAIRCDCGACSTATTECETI

Abs 405 nm [1]: 0.972 Abs 405 nm
Abs 405 nm [2]: 1.41 Abs 405 nm
Substance: FLAG-BRP fusion protein (N-terminal FLAG tag on predicted mature human BRP, secreted through the mouse preprotrypsin signal) (from UniProt Q86YW7 25-130)

From patent US20040005554A1
